system: T1, PolR (Microlunatus phosphovorus NM-1), ORF:57668f7d; assay: EMSA; conditions: EMSA: 3.0 ug His-PolR, 1.0 ug poly(dI-dC), 8% native PAGE, buffer not given (cites Zhang 2014); footprinting: 30 min room temperature, DNase I 1 min 25 C
T1 sequence: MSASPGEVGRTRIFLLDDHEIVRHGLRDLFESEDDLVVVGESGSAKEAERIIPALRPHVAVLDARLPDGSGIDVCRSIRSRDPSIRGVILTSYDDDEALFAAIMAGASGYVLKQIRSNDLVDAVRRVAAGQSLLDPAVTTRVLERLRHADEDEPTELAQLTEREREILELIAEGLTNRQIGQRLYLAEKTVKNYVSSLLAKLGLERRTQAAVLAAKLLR

binding, binds:
AGACGAGTGCTGCCGTGCACCGACTTCGCATCGGCGCCGCAACACAGTCCCCGCCCGTCGTTCGCTCGGCGTTCACCGGCGGGCCCTCGAGTCGTCAGAATGGCTGCCTAGCGTCTGGACCGGAGCCAGTGTCGCTCCTTACGTTCATTGCACGAGTCACACTCCGACAAGGGGAACGAGTGAAGAT (double strand) [pstS (MLP_RS23035) promoter]
GACAGCGATCACGGAGATCAGTAGCCAGTCCATGATTGATCTTCCCCTTGCACGGTCAACAACGACAACCCAATCGTCGTGCCATGAGATGGTCGGCCACACGGGTCTTTCGGCTCTATCTGGTCCTTCCTTCGTCACCGGGAGGGCCCGCCGCCGTTCACCCACCGTTCACTGTGCTGGTCG (double strand) [pit (MLP_RS00235) promoter]
TCAGCCATCTGGACAACCTATCGTCCACACCACACGAGATAGCCGAGTTGGTCAGGTATTGATGCGAGTTGGGGTCGAACGTCCCGTCAGATCCGGTTCGAACGCATCACCTTTGAGTGAAGGCTCATCCGACAACGGGGATCAGCACACTCCTAG (double strand) [ppk (MLP_RS23025) promoter]
TGTGTCCCTTCCGTGAAACCTCGTCGGTGAAGTCTGGTGCGGGCGAGGGGAATCCCGCCCGGAGGGGAGGCTAAACCACCCAGGAGAATGAATGGAGTGTGGTGGCGCCTCGCGAGAATCCGAGCCGCTTCGGCGGATCGGCGCCCGAGGCTCCCTCCGGTGACAGCACGTTCACCCTGCC (double strand) [ppgk (MLP_RS12905) promoter]

binding, no binding:
ATTTGCAGCACTCCGTTCGCCGATTTGCAGCAGGCTTCTGTTCCGTGTGGTCCCCCGACCCAGGGGACCACGGAAACAACTGCGCAGCCCCCGCCCGAGGATCACCCGGAATCTTCCCCCAGGTTTGCCCTGACCCACAGAGGACGCCGCGGGACGAAGTCAACTTCAGCGTACGGTGGAGCACA (double strand) [ppgk (MLP_RS02595) promoter]
CAGTTCACAGTCGCGATACTAGGTCGTAAGCCCGCCTCAAGTTGCCGCTCATGGGGTCGCCACACGCAGCTACAGGGAGGGTTCGGGCTGAGTTCACCCCTCGTTCACATCCGAACTTCGCCAGCCGGTCCATTTCGGGCATAGGCTCGAAGTCGAGCTTTTCTGATCAATCCCGAGGAATCC (double strand) [phoU (MLP_RS22885) promoter]
TCGCTCTCGGTGTTGATCGATCCGGAGCGCCCGTCCAGACCCTGCACCGATCCGTCGAGGGTCGAGACGAAGTTGCTCCGGACGACCGGTCCGGAGCCGCCTTCGGGCCAGCGATAGAGATCGATCAGGTCTGCTCGGCTGAGCTCGGCGGATGGTCGAGGGTCCGCGTG (double strand) [pap (MLP_RS11265) promoter]
TCGTCTCGGCAGCCCTTGGGTGAACTGTTCTCCGAGCGTGAGTAACGCCTCCGGGCGAGCGAGATGAACTGTTCGTGAATCCGCCGCCCGGGGGCCGTTCCAGGTGGATTTGACCGGTTTCGGAACCCCACGATGGTCGCGTGACCGAAGCTC (double strand) [pit (MLP_RS14415) promoter]
TTCGACCTCCGTATTCGGCTATTCGACTGTCCACCCTCTTCGTTACCACCGAGGGAGACACGTCACATTCACAACTCCCGGTCTGCGGATCAGACCAGCGATGCTGTCCGTGACTGCGGAAAGCTGACGACCGGAGACTGAGCGCCGGGGACCCGTTAACCCATTGTTCGCCCGGCA (double strand) [ppk2 (MLP_RS02760) promoter]
